# Assay results published in the supplement of paper PMC9170038.
# Test system: MS2 coat protein
# Assay: apparent KD of MS2 coat protein; designed switch direction (-1 OFF switch, 1 ON switch): -1; higher = weaker reporter binding
# Procedure, shortened: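 Apparent KD, taken as the median over clusters for each design, was obtained by curve-fitting normalised cluster fluorescence. Designed RNA switches had been transcribed on Illumina chips by stalled E. coli RNA polymerase and titrated with SNAP-549-labelled MS2 coat protein, doubling from 0.7 or 1.5 nM to 3 µM.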
# [1] = input ligand: microRNA oligo, concentration not stated
# [2] = Eterna round: R95, input ligand: microRNA oligo, concentration not stated
Sequence,apparent KD of MS2 coat protein (input ligand: FMN 200 uM) [nM],apparent KD of MS2 coat protein [1] [nM],apparent KD of MS2 coat protein (input ligand: none) [nM],"apparent KD of MS2 coat protein (Eterna round: R95, input ligand: FMN 200 uM) [nM]",apparent KD of MS2 coat protein [2] [nM],"apparent KD of MS2 coat protein (Eterna round: R95, input ligand: none) [nM]"
"CUCCGGCGUGUAGGAUAUGGAUCCGAUUAGGAUCCAGAAGGACAUGAGGAUCACCCAUGUACAUGUAGACGGUCGUCACCGGGC [salish99_ExNG1_r04_208] (Eterna round: R96, puzzle: Exclusion NG 1)",195,32,42.1,–,–,–
"UUGUUAUGUGUAGGAUAUGCAUAUUAUUAUUAUGCAGAAGGACAUGAGGAUCACCCAUGUAUAUUAUUAUUAUAUGUUAUAUAU [Title] (Eterna round: R96, puzzle: Exclusion NG 1)",29.3,19,22.8,–,–,–
"AGUCCUGGAGUUAGGAUAUGGAGUAUCACUGCACUUCAGAAGGGACUUGAGGAUCACCCAAGUAGCCGUGAGGG [salish99_bmod_ex4_r4_004] (Eterna round: R97, puzzle: Brourd's mod of Exclusion 4)",74.3,–,49.2,–,–,–
GUGAAACAUGAGGAUCACCCAUGUGAGGAUAUGAUUUAGUAAUGAUGAAAGUAAAUAUUCAGAAGGCACAAUGG [Mat - Mod of JL D71] (puzzle: Exclusion 1),–,–,–,74.2,92.7,90.2
"GCUGGUCAAGGAUAUGCAAUCGUGCUUCGGCACGUAAGGUCACAUGAGGAUCACCCAUGUAGAAGGUGACCAGC [E2/4-C1] (Eterna round: R97, puzzle: Exclusion 2)",27.8,–,18.4,–,–,–
"UAUUACCUAGGAUAUACAUGAGGAUCACCCAUGUCACGGGUCAACUUGUCCUAUGCGUGUAGAAGGAGGGACCC [JL Ceriza mod 6] (Eterna round: R96, puzzle: Exclusion 3)",25,16.5,25.4,–,–,–
"GAACUGAAGCUUUGCUUUAGUCGUACAUGAGGAUCACCCAUGUAGGAUAUGGUAGGCAAAGCUUACUAGAAGGACAGAGUGAUC [Mat - Exclusion NG 3 - Mod of JL - D69] (Eterna round: R96, puzzle: Exclusion NG 3)",99.1,156,71.3,–,–,–
UUAUAAAGUGUGAGGAUAUGCUGGUCCUUAGAUCAGCAGAAGGCACAUGAGGAUCACCCAUGUAAUAUAUUUUU [Mat - Exclusion 4 - JL Mod - D42] (puzzle: Brourd's mod of Exclusion 4),–,–,–,–,33.9,–
"AACGAGGCAGGAUAUACAUGAGGAUCACCCAUGUGCUUGCAUGGCGUGGGAAGUCAUCGUAGAAGGGCUAUGCC [EX3 #64] (Eterna round: R97, puzzle: Exclusion 3)",210,–,283,–,–,–
"UUUAAUUUAAUUAAGAUCACAUGAGGAUCACCCAUGUAAUUAUAGGAUAUCAGCUCGUGUAGAGCUGAGAAGGAUAAUUACAUA [ExNG3/5-A3] (Eterna round: R96, puzzle: Exclusion NG 3)",81.9,58.2,72.7,–,–,–
"ACAAGCUUAAUCAGUAUGAACAUGAGGAUCACCCAUGUAAAAGGGAAUACUAUUGGGUUUUUUAUAGCUCGUCUUAU [JR_STOV1_Sub018] (Eterna round: R97, puzzle: Sensor, turn-off variant 1)",17.8,–,21.7,–,–,–
"GCCUCACUUGAGGAUCACCCAAGUCAGGAUAUUCACUGAACUACGUAGCAGUUCGGCCGAAGAAGGGAUUCGGG [Azaraqu] (Eterna round: R97, puzzle: Exclusion 1)",44.5,–,95.1,–,–,–
"GGCUAGUCAGGAUAUACGAACAUGUCAAAAGACGUGAAGGGACAUGAGGAUCACCCAUGUAGAAGGGACUAGCA [salish99-ex2-12] (Eterna round: R96, puzzle: Exclusion 2)",187,21,28,–,–,–
"CUCUAGUCAGGAUAUCACGUUUACCGUGCACUCACAAAGCCUGAGAAGGGACUUGAGGAUCACCCAAGUGGGAA [Reedbequ] (Eterna round: R97, puzzle: Exclusion 4)",211,–,231,–,–,–
"UUUUUAUAUGAAGGAUAUACUUAACAUGAGGAUCACCCAUGUGGUGUUGUGAGUGAGUGAGUUUAGUAGAAGGUCAAUUCUUUG [JMF's solution 84] (Eterna round: R96, puzzle: Exclusion NG 2)",397,344,347,–,–,–
"CGUUCGCGAGGAUAUGCAUUCGAGUCCACUACGUGUCUGGGACUUGAGGAUCACCCAAGUAGAAGGCGCCUCCA [salish99_ex2_r4_650] (Eterna round: R97, puzzle: Exclusion 2)",78.5,–,130,–,–,–
